Test results reported in patent publication US20200377590A1 (Hoffmann-La Roche, published 2020).
Substitutions are numbered along the chain they refer to. Like-named read-outs stand apart in the source and are kept apart here.

Legend:
Assay in all cases: cell ELISA
[1] = target: T1, CD81 (UniProt P60033 1-236, limits assumed)
T1 construct: whole, on cells; also called CD81 receptor
T1 sequence (looked up): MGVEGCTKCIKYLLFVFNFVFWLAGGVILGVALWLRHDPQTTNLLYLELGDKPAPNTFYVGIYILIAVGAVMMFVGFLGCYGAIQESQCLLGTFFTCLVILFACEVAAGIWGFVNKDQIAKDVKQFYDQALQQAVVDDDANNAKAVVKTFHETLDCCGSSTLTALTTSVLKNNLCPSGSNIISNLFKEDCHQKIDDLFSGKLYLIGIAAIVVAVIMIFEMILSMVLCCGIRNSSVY
Method: For the binding cell ELISA assay, HuH7-Rluc-H3 (positive cell line expressing CD81) and HuH7-Rluc-L1 (negative control cell line) were propagated in F-12 DMEM medium with 10% FCS at 37° C. and 5% CO₂. On day 1, the cells were trypsinized at approximately 90% confluence and resuspended at 4×10⁵ cells/mL. […] On day 2, the antibody samples to be tested were prepared in a separate polypropylene round bottom plate with a twofold desired concentration with a final volume of 120 μl. All of the assay samples were diluted in cell culture medium. […] After fixation, each well was washed 3 times with 200 μL PBS/0.05% Tween. The secondary incubation step for detection of bound anti-CD81 antibodies was performed for 2 h at room temperature on a reciprocal shaker. […] Each well was washed three times with 200 μL PBS/0.05% Tween to remove unbound antibodies. […] The absorbance was read using the ELISA Tecan reader at 450 nm with 620 nm reference wavelength.

[2] = target: T1, CD81; remark: listed apart in the source
[3] = target: T1, CD81; remark: listed apart in the source

B1: CD81K13 HC 04-hVH_1_69 / LC CD81K13 (antibody, V domains shown)
VH: EVQLVESGGGLVQPGRSLRLSCTASGFNFKDSYLHWVRQAPGQGLEWMGRIDTGNGNVKFDPKFQGRVTITADESTSTAYMELSSLRSEDTAVYYCVPYGYGFHSWGQGTLVTVSS
VL: DIQMTQSPASLSVSVGETVTITCRASENIYRTLAWYLQKQGKSPQLLVYGATTLADGVPSRFSGSGSGTQYYLKINSLQSEDFGTYHCQHFWGTPWTFGGGTKVEIK
notes: human constant region
ELISA data [1]: 0.776

B2: CD81K13 HC 04-hVH_1_69 / LC 01-hVK_3_15 (antibody, V domains shown)
VH: B1 VH
VL: EIVMTQSPATLSVSPGERATLSCRASENIYRTLAWYQQKPGQAPRLLIYGATTRATGIPARFSGSGSGTEFTLTISSLQSEDFGVYYCQHFWGTPWTFGQGTKVEIK
notes: human constant region
ELISA data [1]: 0.513

B3: CD81K13 HC 04-hVH_1_69 / LC 1c-hVK_3_15 (antibody, V domains shown)
VH: B1 VH
VL: B2 VL with R54L, T56D
notes: human constant region
ELISA data [1]: 0.395

B4: CD81K13 HC 04-hVH_1_69 / LC 1b-hVK_3_15 (antibody, V domains shown)
VH: B1 VH
VL: B2 VL with R54L, T56D, G84A
notes: human constant region
ELISA data [1]: 0.277

B5: CD81K04 HC JA_GG-14-hVH_1_69-GA / LC GG-04-hVK_4_1 (antibody, V domains shown)
VH: QVQLVQSGAEVKKPGSSVKVSCKASGYTFSSSWMNWVRQAPGQGLEWMGRIYSGDGDAIYNGKFKGKATITADESTSTAYMELSSLRSEDTAVYYCAREGKTGDLLLRSWGQGTLVTVSS
VL: DIVMTQSPDSLAVSLGERATINCKSSKSVSTSIYSYLAWYQQKPGQPPKLLIYYASTRESGVPDRFSGSGSGTDFTLTISSLQAEDVAVYYCQHSREFPYTFGQGTKLEIK
notes: human constant region
ELISA data [2]: 0.107 | ELISA data [3]: 0.12

B6: CD81K04 HC JA_GG-14-hVH_1_69-GA / LC JA_GG-07-hVK_7_3 (antibody, V domains shown)
VH: B5 VH
VL: DIVLTQSPASLAVSPGQRATITCRASKSVSTSIYSYMHWYQQKPGQPPKLLIKYASNKDTGVPARFSGSGSGTDFTLTINPVEANDAANYYCLHSREFPYTFGQGTKLEIK
notes: human constant region
ELISA data [2]: 0.107 | ELISA data [3]: 0.125

B7: CD81K13 HC 5b-hVH_1_69 / LC 03-hVK_1_9 (antibody, V domains shown)
VH: QVQLVQSGAELVKPGSSVKVSCKASGFNFKDSYLHWVRQAPGQGLEWMGRIDTGNGNVKFDPKFQGRVTITTDESTSTAYMELSSLRSEDTAVYYCVPYGYGFHSWGQGTLVTVSS
VL: DIQLTQSPSFLSASVGDRVTITCRASENIYRTLAWYQQKPGKAPKLLIYAATTLASGVPSRFSGSGSGTEFTLTISSLQPEDFATYYCQHFWGTPWTFGQGTKVEIK
notes: human constant region
ELISA data [1]: 0.73

B8: CD81K13 HC 04-hVH_1_69 / LC 05-hVK_1_39 (antibody, V domains shown)
VH: B1 VH
VL: B7 VL with L4M, F10S, E70D
notes: human constant region
ELISA data [1]: 0.776

B9: CD81K13 HC 04-hVH_1_69 / LC 03-hVK_1_9 (antibody, V domains shown)
VH: B1 VH
VL: B7 VL
notes: human constant region
ELISA data [1]: 0.52

B10: CD81K13 HC 04-hVH_1_69 / LC 5b-hVK_1_39 (antibody, V domains shown)
VH: B1 VH
VL: B7 VL with L4M, F10S, A50G, S56D, E70D
notes: human constant region
ELISA data [1]: 0.428

B11: CD81K13 HC 04-hVH_1_69 / LC 06-hVK_1_39 (antibody, V domains shown)
VH: B1 VH
VL: B7 VL with L4M, F10S, E70D, A84G
notes: human constant region
ELISA data [1]: 0.386

B12: CD81K13 HC 04-hVH_1_69 / LC 5b-hVK_1_39-GA (antibody, V domains shown)
VH: B1 VH
VL: B7 VL with L4M, F10S, A50G, S56D, E70D
notes: human constant region
ELISA data [1]: 0.403

B13: CD81K13 HC 04-hVH_1_69 / LC 04-hVK_1_9 (antibody, V domains shown)
VH: B1 VH
VL: B7 VL with A84G
notes: human constant region
ELISA data [1]: 0.459

B14: CD81K13 HC 5b-hVH_1_69-GA / LC 5b-hVK_1_39-GA (antibody, V domains shown)
VH: B7 VH
VL: B7 VL with L4M, F10S, A50G, S56D, E70D
notes: human constant region
ELISA data [1]: 0.684

B15: CD81K13 HC 06-hVH_1_3 / LC 04-hVK_1_9 (antibody, V domains shown)
VH: B7 VH with L11V, V12K, S16A, F27Y, N28T, G44R, E74T, T76A, V97A
VL: B7 VL with A84G
notes: human constant region
ELISA data [1]: 0.371

B16: CD81K13 HC 07-hVH_1_3 / LC 03-hVK_1_9 (antibody, V domains shown)
VH: B7 VH with L11V, V12K, S16A, F27Y, N28T, E74T, T76A, V97A
VL: B7 VL
notes: human constant region
ELISA data [1]: 0.331

B17: CD81K13 HC 07-hVH_1_3 / LC 04-hVK_1_9 (antibody, V domains shown)
VH: B7 VH with L11V, V12K, S16A, F27Y, N28T, E74T, T76A, V97A
VL: B7 VL with A84G
notes: human constant region
ELISA data [1]: 0.141

B18: CD81K13 HC 5b-hVH_1_69 / LC 04-hVK_1_9 (antibody, V domains shown)
VH: B7 VH
VL: B7 VL with A84G
notes: human constant region
ELISA data [1]: 0.695

B19: CD81K13 HC 06-hVH_1_3 / LC 07-hVK_1_27 (antibody, V domains shown)
VH: B7 VH with L11V, V12K, S16A, F27Y, N28T, G44R, E74T, T76A, V97A
VL: B7 VL with L4M, F10S, A43V, E70D, F83V, A84G, H90K
notes: human constant region
ELISA data [1]: 0.078

B20: CD81K13 HC 07-hVH_1_3 / LC 5b-hVK_1_39-GA (antibody, V domains shown)
VH: B7 VH with L11V, V12K, S16A, F27Y, N28T, E74T, T76A, V97A
VL: B7 VL with L4M, F10S, A50G, S56D, E70D
notes: human constant region
ELISA data [1]: 0.363

B21: CD81K13 HC 5b-hVH_1_69-GA / LC 03-hVK_1_9 (antibody, V domains shown)
VH: B7 VH
VL: B7 VL
notes: human constant region
ELISA data [1]: 0.788

B22: CD81K13 HC 06-hVH_1_3 / LC 5b-hVK_1_39 (antibody, V domains shown)
VH: B7 VH with L11V, V12K, S16A, F27Y, N28T, G44R, E74T, T76A, V97A
VL: B7 VL with L4M, F10S, A50G, S56D, E70D
notes: human constant region
ELISA data [1]: 0.388

B23: CD81K13 HC 06-hVH_1_3 / LC 05-hVK_1_39 (antibody, V domains shown)
VH: B7 VH with L11V, V12K, S16A, F27Y, N28T, G44R, E74T, T76A, V97A
VL: B7 VL with L4M, F10S, E70D
notes: human constant region
ELISA data [1]: 0.315

B24: CD81K13 HC 5b-hVH_1_69-GA / LC 05-hVK_1_39 (antibody, V domains shown)
VH: B7 VH
VL: B7 VL with L4M, F10S, E70D
notes: human constant region
ELISA data [1]: 0.858

B25: CD81K13 HC 5b-hVH_1_69 / LC 5b-hVK_1_39-GA (antibody, V domains shown)
VH: B7 VH
VL: B7 VL with L4M, F10S, A50G, S56D, E70D
notes: human constant region
ELISA data [1]: 0.646

B26: CD81K13 HC 5b-hVH_1_69-GA / LC 06-hVK_1_39 (antibody, V domains shown)
VH: B7 VH
VL: B7 VL with L4M, F10S, E70D, A84G
notes: human constant region
ELISA data [1]: 0.528

B27: CD81K13 HC 06-hVH_1_3 / LC 06-hVK_1_39 (antibody, V domains shown)
VH: B7 VH with L11V, V12K, S16A, F27Y, N28T, G44R, E74T, T76A, V97A
VL: B7 VL with L4M, F10S, E70D, A84G
notes: human constant region
ELISA data [1]: 0.323

B28: CD81K13 HC 07-hVH_1_3 / LC 07-hVK_1_27 (antibody, V domains shown)
VH: B7 VH with L11V, V12K, S16A, F27Y, N28T, E74T, T76A, V97A
VL: B7 VL with L4M, F10S, A43V, E70D, F83V, A84G, H90K
notes: human constant region
ELISA data [1]: 0.073

B29: CD81K13 HC 06-hVH_1_3 / LC 5b-hVK_1_39-GA (antibody, V domains shown)
VH: B7 VH with L11V, V12K, S16A, F27Y, N28T, G44R, E74T, T76A, V97A
VL: B7 VL with L4M, F10S, A50G, S56D, E70D
notes: human constant region
ELISA data [1]: 0.37

B30: CD81K13 HC 5b-hVH_1_69 / LC 05-hVK_1_39 (antibody, V domains shown)
VH: B7 VH
VL: B7 VL with L4M, F10S, E70D
notes: human constant region
ELISA data [1]: 0.905

B31: CD81K13 HC 5b-hVH_1_69-GA / LC 07-hVK_1_27 (antibody, V domains shown)
VH: B7 VH
VL: B7 VL with L4M, F10S, A43V, E70D, F83V, A84G, H90K
notes: human constant region
ELISA data [1]: 0.11

B32: CD81K13 HC 07-hVH_1_3 / LC 05-hVK_1_39 (antibody, V domains shown)
VH: B7 VH with L11V, V12K, S16A, F27Y, N28T, E74T, T76A, V97A
VL: B7 VL with L4M, F10S, E70D
notes: human constant region
ELISA data [1]: 0.4

B33: CD81K13 HC 5b-hVH_1_69-GA / LC 5b-hVK_1_39 (antibody, V domains shown)
VH: B7 VH
VL: B7 VL with L4M, F10S, A50G, S56D, E70D
notes: human constant region
ELISA data [1]: 0.737

B34: CD81K13 HC 5b-hVH_1_69-GA / LC 04-hVK_1_9 (antibody, V domains shown)
VH: B7 VH
VL: B7 VL with A84G
notes: human constant region
ELISA data [1]: 0.786

B35: CD81K13 HC 5b-hVH_1_69 / LC 07-hVK_1_27 (antibody, V domains shown)
VH: B7 VH
VL: B7 VL with L4M, F10S, A43V, E70D, F83V, A84G, H90K
notes: human constant region
ELISA data [1]: 0.114

B36: CD81K13 HC 5b-hVH_1_69 / LC 5b-hVK_1_39 (antibody, V domains shown)
VH: B7 VH
VL: B7 VL with L4M, F10S, A50G, S56D, E70D
notes: human constant region
ELISA data [1]: 0.463

B37: CD81K13 HC 07-hVH_1_3 / LC 06-hVK_1_39 (antibody, V domains shown)
VH: B7 VH with L11V, V12K, S16A, F27Y, N28T, E74T, T76A, V97A
VL: B7 VL with L4M, F10S, E70D, A84G
notes: human constant region
ELISA data [1]: 0.269

B38: CD81K13 HC 06-hVH_1_3 / LC 03-hVK_1_9 (antibody, V domains shown)
VH: B7 VH with L11V, V12K, S16A, F27Y, N28T, G44R, E74T, T76A, V97A
VL: B7 VL
notes: human constant region
ELISA data [1]: 0.352

B39: CD81K13 HC 5b-hVH_1_69 / LC 06-hVK_1_39 (antibody, V domains shown)
VH: B7 VH
VL: B7 VL with L4M, F10S, E70D, A84G
notes: human constant region
ELISA data [1]: 0.522

B40: CD81K13 HC 07-hVH_1_3 / LC 5b-hVK_1_39 (antibody, V domains shown)
VH: B7 VH with L11V, V12K, S16A, F27Y, N28T, E74T, T76A, V97A
VL: B7 VL with L4M, F10S, A50G, S56D, E70D
notes: human constant region
ELISA data [1]: 0.448
